Data reported in FireProtDB (doi:10.1021/bi972642d).

B1: Protein S100-G, P02633 (parent)
chain: MSAKKSPEELKGIFEKYAAKEGDPNQLSKEELKLLLQTEFPSLLKGPSTLDELFEELDKNGDGEVSFEEFQVLVKKISQ

Variants of: B1
Conditions: Bos taurus; pH 7; 25 °C; Urea; CD; Potassium phosphate 10 mM; structure 1IGV; whole UniProt chain shown

Variant	ddG of mutation (higher = less stable) [kcal/mol]	denaturant m value [kcal/mol/M]	denaturant midpoint (higher = more stable) [M]	unfolding free energy [kcal/mol]
MSAKKSPEELKGIFEKYAAKEGDPNQLSKEELKLLLQTEFPSLLKGPSTLDELFEELDKNGDGEVSFEEWQVLVKKISQ [F70W]	2.34	0.69	6.1	4.21
MSAKKSPEELKGIFEKYAAKEGDPNQLSKEELKLLLQTEFPSLLKGPSTLDELFEELDKNGDGEVSFEEAQVLVKKISQ [F70A]	4.97	0.79	2	1.58
MSAKKSPEELKGIFEKYAAKEGDPNQLSKEELKLLLQTEFPSLLKGPSTLDELFEELDKNGDGEGSFEEFQVLVKKISQ [V65G]	4.35	0.86	2.6	2.2
MSAKKSPEELKGIFEKYAAKEGDPNQLSKEELKLLLQTEFPSLLKGPSTLDELFEELDKNGDGEASFEEFQVLVKKISQ [V65A]	3.78	0.81	3.4	2.77
MSAKKSPEEVKGIFEKYAAKEGDPNQLSKEELKLLLQTEFPSLLKGPSTLDELFEELDKNGDGEVSFEEFQVLVKKISQ [L10V]	2.2	1	4.3	4.35
MSAKKSPEELKGIFEKYAAKEGDPNQLSKEEAKLLLQTEFPSLLKGPSTLDELFEELDKNGDGEVSFEEFQVLVKKISQ [L32A]	2.7	1.03	3.8	3.85
MSAKKSPEELKGIFEKYAAKEGDPNQLSKEELKLLLQTEFPSLLKGPSTLDELFEELDKNGDGEVSFEEFQVLLKKISQ [V74L]	1.2	0.81	6.6	5.35
MSAKKSPEELKGIFEKYAAKEGDPNQGSKEELKLLLQTEFPSLLKGPSTLDELFEELDKNGDGEVSFEEFQVLVKKISQ [L27G]	4.28	1.22	1.8	2.27
MSAKKSPEELKGIFEKYAAKEGDPNQASKEELKLLLQTEFPSLLKGPSTLDELFEELDKNGDGEVSFEEFQVLVKKISQ [L27A]	3.73	1.03	2.7	2.82
MSAKKSPEELKGIFEKYAAKEGDPNQLSKEELKLLLQTEFPSLLKGPSTLDELFEELDKNGDGEVSFEEFQVLVKKVSQ [I77V]	1.53	1.15	4.4	5.02
MSAKKSPEELKGIAEKYAAKEGDPNQLSKEELKLLLQTEFPSLLKGPSTLDELFEELDKNGDGEVSFEEFQVLVKKISQ [F14A]	4.83	0.88	2	1.72
